For one substance, Kd, anti-tumor activity against Daudi cell lines (MTT anti-proliferative assay) and anti-virus activity, WISH/VSV system (cytopathic effect reduction assay) results are on record in article PMC3976097.

Experiment [1] deals with Recombinant human IFN-α/β R2-Fc chimera (human) (UniProt P48551). The experiment is described as follows: SPR; BIAcore T-100; human IFNR2-Fc captured on a CM5 chip by an immobilized anti-human IgG Fc antibody; Nova or IFN-α2b in the solution phase; binding measured under equilibrium conditions. (SPR reads the build-up and loss of mass on a sensor chip optically.)
For experiment [2] the target is unchanged.

Chain of UniProt P48551 (P48551 27-243, change not shown): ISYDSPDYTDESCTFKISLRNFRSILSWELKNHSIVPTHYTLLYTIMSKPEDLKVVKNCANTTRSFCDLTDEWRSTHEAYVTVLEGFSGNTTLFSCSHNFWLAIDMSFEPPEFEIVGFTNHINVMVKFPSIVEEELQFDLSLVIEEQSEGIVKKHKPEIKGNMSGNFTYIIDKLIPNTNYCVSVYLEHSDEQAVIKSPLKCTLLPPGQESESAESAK

In the case of Novaferon (ligand), in experiment [1], the Kd (commonly the concentration at which binding is half-saturated) turned out to be 0.0123 nM. Moreover, in experiment [2], the anti-tumor activity against Daudi cell lines (MTT anti-proliferative assay) stood at 2.74e+10 U/mg and the anti-virus activity, WISH/VSV system (cytopathic effect reduction assay) worked out at 1.34e+09.
